# Results as given in IntAct's records for PubMed 23403928.
# B1: Mitochondrial import inner membrane translocase subunit TIM23 (Saccharomyces cerevisiae), P32897 (parent)
# chain: MSWLFGDKTPTDDANAAVGGQDTTKPKELSLKQSLGFEPNINNIISGPGGMHVDTARLHPLAGLDKGVEYLDLEEEQLSSLEGSQGLIPSRGWTDDLCYGTGAVYLLGLGIGGFSGMMQGLQNIPPNSPGKLQLNTVLNHITKRGPFLGNNAGILALSYNIINSTIDALRGKHDTAGSIGAGALTGALFKSSKGLKPMGYSSAMVAAACAVWCSVKKRLLEK
# partner: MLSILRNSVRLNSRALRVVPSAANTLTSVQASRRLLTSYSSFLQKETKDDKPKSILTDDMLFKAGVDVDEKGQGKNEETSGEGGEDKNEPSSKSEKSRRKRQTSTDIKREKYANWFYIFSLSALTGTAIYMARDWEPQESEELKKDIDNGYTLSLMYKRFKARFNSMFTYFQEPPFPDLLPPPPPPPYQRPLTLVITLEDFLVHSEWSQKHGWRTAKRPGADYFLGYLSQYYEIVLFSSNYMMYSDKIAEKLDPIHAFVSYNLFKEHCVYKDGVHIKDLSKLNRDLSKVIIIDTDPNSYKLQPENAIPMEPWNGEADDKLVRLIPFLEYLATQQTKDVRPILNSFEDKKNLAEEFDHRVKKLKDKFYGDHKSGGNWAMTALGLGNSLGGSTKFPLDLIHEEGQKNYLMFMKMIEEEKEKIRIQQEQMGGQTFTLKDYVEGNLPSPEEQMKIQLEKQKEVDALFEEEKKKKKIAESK
# Variants of: B1
# Settings: with tim50_yeast TIM50, Q02776
row,effect of a mutation on the interaction,Variant
1,disrupting interaction,MSWLFGDKTPTDDANAAVGGQDTTKPKELSLKQSLGFEPNINNIISGPGGMHVDTARLHPLAGLDKGVEAADLEEEQLSSLEGSQGLIPSRGWTDDLCYGTGAVYLLGLGIGGFSGMMQGLQNIPPNSPGKLQLNTVLNHITKRGPFLGNNAGILALSYNIINSTIDALRGKHDTAGSIGAGALTGALFKSSKGLKPMGYSSAMVAAACAVWCSVKKRLLEK [Y70A;L71A]
